Starred links: 1 amine or outer side, 2 acyl side, 3 side chain; linkers in the order of their positions; H or OH if unused. Non-standard residues stand in square brackets, D forms with d. Primed or numbered codes have the meaning given here. No end group written: not given here. Trimesoyl = O=C(c1cc(C(=O)[*:2])cc(C(=O)[*:3])c1)[*:1]; Phe(3,4-F2) = N[C@@H](Cc1ccc(F)c(F)c1)C(=O)O; Phe(4-Br) = N[C@@H](Cc1ccc(Br)cc1)C(=O)O; Phe(4-Cl) = N[C@@H](Cc1ccc(Cl)cc1)C(=O)O; Phe(4-F) = N[C@@H](Cc1ccc(F)cc1)C(=O)O; dPhe(4-F) = N[C@H](Cc1ccc(F)cc1)C(=O)O; 2Nal = N[C@@H](Cc1ccc2ccccc2c1)C(=O)O; Pip′ = L-homoproline (pipecolyl); Dap = NC[C@H](N)C(=O)O; Sar = CNCC(=O)O
Assays:
[1] = target: Pin1 (Example 6, construct not stated) (human) (UniProt Q13526); assay: fluorescence anisotropy
[2] = target: Pin1 (Example 6, construct not stated) (human) (UniProt Q13526); assay: cell-based or functional assay
[3] = target: Pin1 (Example 6, construct not stated) (human) (UniProt Q13526); assay: FA competition; competitor probe FITC-labeled peptide 1 (100 nM), Pin1 400 nM
[4] = target: bovine serum albumin (bovine) (UniProt P02769); assay: binding test against a panel of arbitrarily selected proteins
bovine serum albumin (bovine), sequence (P02769 25-607 limits assumed): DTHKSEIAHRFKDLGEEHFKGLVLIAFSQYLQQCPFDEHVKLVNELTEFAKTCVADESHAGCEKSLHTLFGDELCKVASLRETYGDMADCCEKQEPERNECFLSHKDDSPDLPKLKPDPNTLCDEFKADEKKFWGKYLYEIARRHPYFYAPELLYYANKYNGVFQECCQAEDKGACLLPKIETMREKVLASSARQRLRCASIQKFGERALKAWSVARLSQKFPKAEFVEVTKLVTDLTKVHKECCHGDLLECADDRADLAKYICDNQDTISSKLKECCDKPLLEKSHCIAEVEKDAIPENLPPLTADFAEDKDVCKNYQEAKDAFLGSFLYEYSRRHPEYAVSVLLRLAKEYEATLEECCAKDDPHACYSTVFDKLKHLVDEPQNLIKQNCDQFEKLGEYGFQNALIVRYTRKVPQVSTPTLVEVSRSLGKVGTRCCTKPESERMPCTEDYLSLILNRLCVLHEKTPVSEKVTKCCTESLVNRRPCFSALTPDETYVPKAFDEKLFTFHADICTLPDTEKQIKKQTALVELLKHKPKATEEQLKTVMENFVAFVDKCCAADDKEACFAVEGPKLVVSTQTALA

| Binder | Kd [1] [nM] | also measured |
| --- | --- | --- |
| Trimesoyl-P[Sar][dD][Pip′][2Nal]RR[dV][Dap]F[2Nal]RRRR[Dap]K-NH2 (linker (positions not given here) via Trimesoyl; not fully specified (some residues, bridges); printed as bicyclo[Tm-(Pro-Sar-D-Asp-Pip-Nal-Arg-Arg-D-Val)-Dap-(Phe-Nal-Arg-Arg-Arg-Arg-Dap)]-Lys) [peptide 23 (Table 18)] | 1920 |  |
| Trimesoyl-P[Sar][dD][Pip′][2Nal]RR[dD][Dap]F[2Nal]RRRR[Dap]K-NH2 (linker (positions not given here) via Trimesoyl; not fully specified (some residues, bridges); printed as bicyclo[Tm-(Pro-Sar-D-Asp-Pip-Nal-Arg-Arg-D-Asp)-Dap-(Phe-Nal-Arg-Arg-Arg-Arg-Dap)]-Lys) [peptide 25 (Table 18)] | 4600 |  |
| Trimesoyl-[dF]F[dT][Pip′][2Nal]RA[dF][Dap]F[2Nal]RRRR[Dap]K (linker (positions not given here) via Trimesoyl; not fully specified (some residues, C-terminus, bridges); printed as bicyclo[Tm-(D-Phe-Phe-D-Thr-Pip-Nal-Arg-Ala-D-Phe)-Dap-(Phe-Nal-Arg-Arg-Arg-Arg-Dap)]-Lys) [peptide 28 (Table 18)] | 1260 |  |
| Trimesoyl-P[Sar][dD][Pip′][2Nal]RD[dA][Dap]F[2Nal]RRRR[Dap]K-NH2 (linker (positions not given here) via Trimesoyl; not fully specified (some residues, bridges); printed as bicyclo[Tm-(Pro-Sar-D-Asp-Pip-Nal-Arg-Asp-D-Ala)-Dap-(Phe-Nal-Arg-Arg-Arg-Arg-Dap)]-Lys) [peptide 20 (Table 18)] | 3190 |  |
| Trimesoyl-[dF][Phe(4-Br)][dT][Pip′][2Nal]RA[dF][Dap]F[2Nal]RRRR[Dap]K (linker (positions not given here) via Trimesoyl; not fully specified (C-terminus, bridges); printed as bicyclo[Tm-(D-Phe-4-BrPhe-D-Thr-Pip-Nal-Arg-Ala-D-Phe)-Dap-(Phe-Nal-Arg-Arg-Arg-Arg-Dap)]-Lys) [peptide 32 (Table 18)] | 1780 |  |
| Trimesoyl-[dF]H[dT][Pip′][2Nal]RA[dF][Dap]F[2Nal]RRRR[Dap]K (linker (positions not given here) via Trimesoyl; not fully specified (C-terminus, bridges); printed as bicyclo[Tm-(D-Phe-His-D-Thr-Pip-Nal-Arg-Ala-D-Phe)-Dap-(Phe-Nal-Arg-Arg-Arg-Arg-Dap)]-Lys) [peptide 31 (Table 18)] | 1680 |  |
| Trimesoyl-P[Sar][dD][Pip′][2Nal]RR[dR][Dap]F[2Nal]RRRR[Dap]K-NH2 (linker (positions not given here) via Trimesoyl; not fully specified (some residues, bridges); printed as bicyclo[Tm-(Pro-Sar-D-Asp-Pip-Nal-Arg-Arg-D-Arg)-Dap-(Phe-Nal-Arg-Arg-Arg-Arg-Dap)]-Lys) [peptide 24 (Table 18)] | 1310 |  |

Now those with a lower Kd [1], led by results:

| Kd [1] [nM] | Binder | also measured |
| --- | --- | --- |
| 1070 | Trimesoyl-[dV][Phe(4-F)][dT][Pip′][2Nal]RA[dA][Dap]F[2Nal]RRRR[Dap]K (linker (positions not given here) via Trimesoyl; not fully specified (C-terminus, bridges); printed as bicyclo[Tm-(D-Val-4-Fpa-D-Thr-Pip-Nal-Arg-Ala-D-Ala)-Dap-(Phe-Nal-Arg-Arg-Arg-Arg-Dap)]-Lys) [peptide 34 (Table 18)] |  |
| 780 | Trimesoyl-[dF][Phe(4-Cl)][dT][Pip′][2Nal]RA[dF][Dap]F[2Nal]RRRR[Dap]K (linker (positions not given here) via Trimesoyl; not fully specified (C-terminus, bridges); printed as bicyclo[Tm-(D-Phe-4-ClPhe-D-Thr-Pip-Nal-Arg-Ala-D-Phe)-Dap-(Phe-Nal-Arg-Arg-Arg-Arg-Dap)]-Lys) [peptide 30 (Table 18)] |  |
| 740 | Trimesoyl-[dF][Phe(4-F)][dT][Pip′][2Nal]RG[dA][Dap]F[2Nal]RRRR[Dap]K-NH2 (linker (positions not given here) via Trimesoyl; not fully specified (some residues, bridges); printed as bicyclo[Tm-(D-Phe-4-Fpa-D-Thr-Pip-Nal-Arg-Gly-D-Ala)-Dap-(Phe-Nal-Arg-Arg-Arg-Arg-Dap)]-Lys) [peptide 26 (Table 18)] |  |
| 720 | Trimesoyl-P[Sar][dD][Pip′][2Nal]RR[dA][Dap]F[2Nal]RRRR[Dap]K-NH2 (linker (positions not given here) via Trimesoyl; not fully specified (some residues, bridges); printed as bicyclo[Tm-(Pro-Sar-D-Asp-Pip-Nal-Arg-Arg-D-Ala)-Dap-(Phe-Nal-Arg-Arg-Arg-Arg-Dap)]-Lys) [peptide 19 (Table 18)] |  |
| 570 | Trimesoyl-[dF][Phe(4-F)][dT][Pip′][2Nal]RS[dF][Dap]F[2Nal]RRRR[Dap]K-NH2 (linker (positions not given here) via Trimesoyl; not fully specified (some residues, bridges); printed as bicyclo[Tm-(D-Phe-Fpa-D-Thr-Pip-Nal-Arg-Ser-D-Phe)-Dap-(Phe-Nal-Arg-Arg-Arg-Arg-Dap)]-Lys) [peptide 21 (Table 18)] |  |
| 410 | Trimesoyl-[dF][Phe(3,4-F2)][dT][Pip′][2Nal]RA[dF][Dap]F[2Nal]RRRR[Dap]K (linker (positions not given here) via Trimesoyl; not fully specified (C-terminus, bridges); printed as bicyclo[Tm-(D-Phe-3,4-diFPhe-D-Thr-Pip-Nal-Arg-Ala-D-Phe)-Dap-(Phe-Nal-Arg-Arg-Arg-Arg-Dap)]-Lys) [peptide 29 (Table 18)] |  |
| 120 | Trimesoyl-[dPhe(4-F)][Phe(4-F)][dT][Pip′][2Nal]RA[dF][Dap]F[2Nal]RRRR[Dap]K (linker (positions not given here) via Trimesoyl; not fully specified (bridges); printed as bicyclo[Tm-(D-4-Fpa-Fpa-D-Thr-Pip-Nal-Arg-Ala-D-Phe)-Dap-(Phe-Nal-Arg-Arg-Arg-Arg-Dap)]-Lys) [peptide 37 (Table 18)] | IC50 of HeLa cell growth (MTT assay) [2]: 1000 nM; IC50 of Pin1 catalytic activity toward Suc-Ala-Glu-Pro-Phe-pNA [2]: 170 nM; PML protein level in HeLa cells (western blot), 0.2 µM inhibitor [2]: 1.8 fold; PML protein level in HeLa cells (western blot), plateau at ˜1 µM inhibitor [2]: 3.3 fold; IC50 [3]: 190 nM; Kd [4]: 20000 nM |

Source: patent publication US20170355730A1
